In US20250154231A1 (RQBIO COVID, published 2025):
Numbering of substitutions follows the chain as printed.

Target: SARS-CoV-1 S protein (SARS-CoV-1, UniProt P59594 14-1195)
Test: ELISA

B1: Omi41 (antibody, V domains shown)
VH: QVQLVQSGAEVKKPGASVKVSCKAAGYSFMNYGINWVRQAPGQGLEWMGWINTYNGNAKYAQKFQGRVTMTTDTSTSTAYMELRSLRSGDTAVYYCARDPFTGYDDVWGGDYWGQGTLVTVSS
VL: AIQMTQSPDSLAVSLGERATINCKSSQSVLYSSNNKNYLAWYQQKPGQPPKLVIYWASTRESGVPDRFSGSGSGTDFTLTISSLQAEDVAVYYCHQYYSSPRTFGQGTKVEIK
  binding result: no binding

B2: Omi42 (antibody, V domains shown)
VH: EVQLLETGGGLVQPGRSLRLSCAASGFPFDDYAIHWVRLAPGKGLEWVSSISWDSGSIGYADSVKGRFTISRDNAKNSLYLQMNSLRAEDTALYYCAKGAFPGYSSGWYYGLDVWGQGATVTVSS
VL: QSVVTQPPSASGSLGQSVTISCTGTSSDVGGYNYVSWYQQHPGKAPKLMIFEVSKRPSGVPDRFSGSKSGNTASLTVSGLQAEDEADYYCSSYAGNKGVFGGGTKLTVL
  binding result: no binding

B3: Omi18 (antibody, V domains shown)
VH: QVQLVESGGGLIQPGGSLRLSCAASGITVSSNYMTWVRQAPGKGLEWVSLLYAGGSAFYADSVKGRFTISRDNSKNTLYLLMNSLRVGDTAVYYCARDLQVYGMDVWGQGTTVTVSS
VL: SYELTQPPSVSVAPGQTARITCGGNNDGAKSVHWYQQKPGQAPVLVVYDDSDRPSGIPERFSGSNSGNTATLTITRIEAGDEADYYCQVWDSSRDHVFGTGTKVTVL
  binding result: no binding

B4: Omi06 (antibody, V domains shown)
VH: EVQLLESGPGLVKPSETLSLTCTVSGGSISRYSWSWIRQPAGRGLEWIGRMYSSGGTNYNPSLESRVTMSLDTSKKQFSLKLSSVTAADTAVYYCAAASIDQVWGTYRDAFDIWGQGTMVTVSS
VL: AIRMTQSPSSLAASVGDRVTISCRAGQSISSFLHWYQQKVGKAPKLLIYDASSLQSGVPSRFSGSGSGTDFTLTISSLQPEDFAAYYCQQSYENPLTFGGGTKVDIK
  binding result: no binding

B5: Omi08 (antibody, V domains shown)
VH: EVQLVESGAEVKRPGASVKVSCKASGYTFTNYFMHWVRQAPGQGLEWMGVINPSDGGASYPQKFQGRVTMTRDTSTSTVYMDLSSLRSEDTAVYSCARGAFDVSGSWYVPFDYWGQGTLVTVSS
VL: QSVVTQPPSVSGAPGQRVTISCTGSSSNIGAGYDVHWYQQLPGAAPKLLIYGNTNRPSGVPDRFSGSKSGTSASLAITGLQAEDEADYYCQSYDITLSGSGYVFGTGTKVTVL
  binding result: no binding

B6: Omi09 (antibody, V domains shown)
VH: QVQLVESGGGVVQPGRSLRLSCAASGFTFRTYAVHWVRQAPGKGPEWVAVISYDGSNKYYADSVKGRFTLSRDTSKNTLYLQMNSLRAEDTAVYYCASRGDTVTTGDAFDIWGQGTMVTVSS
VL: SYELTQPPSVSVSPGQTARITCSGDALPKQYTYWYQQKPGQPPVLVIYKDSERPSGIPERFSGSSSGTTVTLTISGVQAEDEADYYCQSTDSSATYPGNVVFGGGTKLTVL
  binding result: no binding

B7: Omi12 (antibody, V domains shown)
VH: EVQLVESGPEVKKPGTSVKVSCKASGFSFSMSAMQWVRRARGQRLEWIGWIVPGSGNANYAQKFQERVTITRDESTNTGYMELSSLRSEDTAVYYCAAPHCNKTNCYDAFDIWGQGTMVTVSS
VL: AIRMTQSPGTLSLSPGERATLSCRASQSVRSSYLAWYQQKPGQAPRLLIYGASTRATGIPDRFSGSGSGTDFILTINRLEPEDLAVYYCQQFGSSPWTFGQGTKVDIK
  binding result: no binding

B8: Omi16 (antibody, V domains shown)
VH: EVQLVESGGGVVQPGGSLRLSCAASGIIVSANYMTWVRQAPGKGLEWVSVIYPGGSTFYADSVKGRFTISRDNSKNTLYLQMNSLRVEDSAVYYCARDLELAGFNDFWGQGTLVTVSS
VL: DVVMTQSPGTLALSPGERATLSCRTSQSVSSNYLAWYQQKPGQAPRLLIYGASSRATGIPDRFSGSGSGTDFTLTISRLEPEDFAVYYCQQFGSSPRYTFGQGTKVEIK
  binding result: no binding

B9: Omi17 (antibody, V domains shown)
VH: QVQLVESGGGVVQPGGSLRLSCAASGVTVSSNYMSWVRQAPGKGLEWVSVLYAGGSTFYADSVKGRFTISRDNSKNTLYLQMNSLRAEDTAAYYCARDLAVAGFLDSWGQGTLVTVSS
VL: B8 VL with V2I, A12S, T25A, S28G, N32I, L48V, I49L, F92Y
  binding result: no binding
